Experimental data as given in publication PMC3467058 (Nucleic Acids Research, 2012).

Target: T1, Aeropyrum pernix aEF1α (residues 7-437), C-terminally His-tagged, wild type (Aeropyrum pernix, UniProt Q9YAV0 7-437)
T1 sequence: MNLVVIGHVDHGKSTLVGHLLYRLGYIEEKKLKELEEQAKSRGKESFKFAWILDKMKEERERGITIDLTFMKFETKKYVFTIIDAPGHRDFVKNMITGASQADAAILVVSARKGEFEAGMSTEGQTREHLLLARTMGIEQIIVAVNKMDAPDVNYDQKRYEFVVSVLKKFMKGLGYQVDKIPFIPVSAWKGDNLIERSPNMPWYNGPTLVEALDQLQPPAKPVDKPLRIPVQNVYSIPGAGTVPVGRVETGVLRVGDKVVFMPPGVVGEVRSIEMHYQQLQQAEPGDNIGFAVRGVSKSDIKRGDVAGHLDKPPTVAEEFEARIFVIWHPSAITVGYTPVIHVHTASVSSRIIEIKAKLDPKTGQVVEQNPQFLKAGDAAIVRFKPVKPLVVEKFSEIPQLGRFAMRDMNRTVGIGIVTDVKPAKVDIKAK
Test: pull-down

binding result: binds
B1: archaeal RF1 (aRF1), archaeal class I release factor, Aeropyrum pernix (natural protein)
chain: MSQGRLEERLTISKRELARLLKELKKWSAPATVLLSLYIPPGRPLSDVMTLLRQEYSITDNIKLKRTRQAVKRALSAAMDRLQMLTSTPPNGLVLFCGEDMSTGKFECFMFSPPEPIRVFYYRTDKRFITDFLEDMVEDNNAIGIIIVERDQATIGLLKGARLEVLKELEGFVPGKHKMGGQSQRRYERIIEQMVDEFFKKVGEEASNLLVPLAEKGVLKGVIVAGPGLAKQEFVEGNYLDYRLKKILAPELVDVAYQGLQGLKEAVMKAEKVVEAQMYRDAVNAMEEFKLHLAKGTGMIVYGEKDVEAALEMGAVKTLLIHESREDLEEWVEKAKSSGAQVIVVPESLAEAEWFLKTFGGLAGILRFRISTV
